Test results: patent publication US7629437

Target: T1, Ac-Leu-Thr-Phe-Lys-ACC
T1 chain: LTFK

B1: Cruzain (protein)
chain: APAAVDWRARGAVTAVKDQGQCGSCWAFSAIGNVECQWFLAGHPLTNLSEQMLVSCDKTDSGCSGGLMNNAFEWIVQENNGAVYTEDSYPYASGEGISPPCTTSGHTVGATITGHVELPQDEAQIAAWLAVNGPVAVAVDASSWMTYTGGVMTSCVSEQLDHGVLLVGYNDSAAVPYWIIKNSWTTQWGEEGYIRIAKGSNQCLVKEEASSAVVG
In the case of B1, the “cleavage products (HPLC and MALDI of the digest)” value is reported as “Product fragments corresponding to cleavage between Thr-Phe were observed (data not shown)”.
